B1: Speckle-type POZ protein (Homo sapiens), O43791 (parent)
chain: MSRVPSPPPPAEMSSGPVAESWCYTQIKVVKFSYMWTINNFSFCREEMGEVIKSSTFSSGANDKLKWCLRVNPKGLDEESKDYLSLYLLLVSCPKSEVRAKFKFSILNAKGEETKAMESQRAYRFVQGKDWGFKKFIRRDFLLDEANGLLPDDKLTLFCEVSVVQDSVNISGQNTMNMVKVPECRLADELGGLWENSRFTDCCLCVAGQEFQAHKAILAARSPVFSAMFEHEMEESKKNRVEINDVEPEVFKEMMCFIYTGKAPNLDKMADDLLAAADKYALERLKVMCEDALCSNLSVENAAEILILADLHSADQLKTQAVDFINYHASDVLETSGWKSMVVSHPHLVAEAYRSLASAQCPFLGPPRKRLKQS

Variants of: B1
Settings: with brd4_human BRD4, O60885

Row | Variant | effect of a mutation on the interaction
1 | F133V | disrupting interaction strength

Variants of: B1
Settings: with ncoa3_human NCOA3, Q9Y6Q9

Row | Variant | effect of a mutation on the interaction
2 | F133V | disrupting interaction strength

Variants of: B1
Settings: with jun_human JUN

Row | Variant | effect of a mutation on the interaction
3 | F133V | with no effect

Variants of: B1
Settings: with akt1_human AKT1, P31749

Row | Variant | effect of a mutation on the interaction
4 | F133V | with no effect

Variants of: B1
Settings: with alk_human ALK

Row | Variant | effect of a mutation on the interaction
5 | F133V | with no effect

Variants of: B1
Settings: with aph1a_human APH1A

Row | Variant | effect of a mutation on the interaction
6 | F133V | with no effect

Variants of: B1
Settings: with arnt_human ARNT

Row | Variant | effect of a mutation on the interaction
7 | F133V | with no effect

Variants of: B1
Settings: with asxl2_human ASXL2, Q76L83

Row | Variant | effect of a mutation on the interaction
8 | F133V | with no effect

Variants of: B1
Settings: with bakor_human ATG14, Q6ZNE5

Row | Variant | effect of a mutation on the interaction
9 | F133V | with no effect

Variants of: B1
Settings: with atm_human ATM

Row | Variant | effect of a mutation on the interaction
10 | F133V | with no effect

Variants of: B1
Settings: with atpb_human ATP5F1B

Row | Variant | effect of a mutation on the interaction
11 | F133V | with no effect

Variants of: B1
Settings: with aurkb_human AURKB

Row | Variant | effect of a mutation on the interaction
12 | F133V | with no effect

Variants of: B1
Settings: with axin2_human AXIN2, Q9Y2T1

Row | Variant | effect of a mutation on the interaction
13 | F133V | with no effect

Variants of: B1
Settings: with ufo_human AXL

Row | Variant | effect of a mutation on the interaction
14 | F133V | with no effect

Variants of: B1
Settings: with za2g_human AZGP1, P25311

Row | Variant | effect of a mutation on the interaction
15 | F133V | with no effect

Variants of: B1
Settings: with b2mg_human B2M

Row | Variant | effect of a mutation on the interaction
16 | F133V | with no effect

Variants of: B1
Settings: with bap1_human BAP1, Q92560

Row | Variant | effect of a mutation on the interaction
17 | F133V | with no effect

Variants of: B1
Settings: with bcor_human BCOR

Row | Variant | effect of a mutation on the interaction
18 | F133V | with no effect

Variants of: B1
Settings: with birc2_human BIRC2, Q13490

Row | Variant | effect of a mutation on the interaction
19 | F133V | with no effect

Variants of: B1
Settings: with brd4_human BRD4, O60885
Remark: another data set of the same source

Row | Variant | effect of a mutation on the interaction
20 | F133V | with no effect

Variants of: B1
Settings: with baba2_human BABAM2, Q9NXR7

Row | Variant | effect of a mutation on the interaction
21 | F133V | with no effect

Variants of: B1
Settings: with btg1_human BTG1, P62324

Row | Variant | effect of a mutation on the interaction
22 | F133V | with no effect

Variants of: B1
Settings: with btk_human BTK

Row | Variant | effect of a mutation on the interaction
23 | F133V | with no effect

Variants of: B1
Settings: with ccnd1_human CCND1, P24385

Row | Variant | effect of a mutation on the interaction
24 | F133V | with no effect

Variants of: B1
Settings: with ccnd2_human CCND2, P30279

Row | Variant | effect of a mutation on the interaction
25 | F133V | with no effect

Variants of: B1
Settings: with ccnd3_human CCND3, P30281

Row | Variant | effect of a mutation on the interaction
26 | F133V | with no effect

Variants of: B1
Settings: with cd44_human CD44, P16070

Row | Variant | effect of a mutation on the interaction
27 | F133V | with no effect

Variants of: B1
Settings: with cd79b_human CD79B

Row | Variant | effect of a mutation on the interaction
28 | F133V | with no effect

Variants of: B1
Settings: with cdc73_human CDC73, Q6P1J9

Row | Variant | effect of a mutation on the interaction
29 | F133V | with no effect

Variants of: B1
Settings: with cdk4_human CDK4, P11802

Row | Variant | effect of a mutation on the interaction
30 | F133V | with no effect
